Results as given in patent publication US20190309288A1, “TARGETED MUTAGENESIS” (THE BOARD OF TRUSTEES OF THE LELAND STANFORD JUNIOR …, priority 2016, published 2019).
Where a chain is given by its changes, count along the chain named. Names may count otherwise.

B1: R78N: PSMB5 variant, chr14: 23033640 C > A/T (protein, UniProt P28074 60-263, looked up, variant R78N)
Proteasome subunit beta type-5: TTTLAFKFRHGVIVAADSNATAGAYIASQTVKKVIEINPYLLGTMAGGAADCSFWERLLARQCRIYELRNKERISVAAASKLLANMVYQYKGMGLSMGTMICGWDKRGPGLYYVDSEGNRISGATFSVGSGSVYAYGVMDRGYSYDLEVEQAYDLARRAIYQATYRDAYSGGAVNLYHVREDGWIRVSSDNVADLHEKYSGSTP
B2: A108V: PSMB5 variant, chr14: 23033550 G > A; residue known to be involved in binding bortezomib (protein, UniProt P28074 60-263, looked up, variant A108V)
Proteasome subunit beta type-5: B1 Proteasome subunit beta type-5 with N19R, A49V
B3: G242D: PSMB5 variant in exon 4, chr14: 23026156 C > T (protein, UniProt P28074 60-263, looked up, variant G242D)
Proteasome subunit beta type-5: B1 Proteasome subunit beta type-5 with N19R, G183D
B4: L11L: PSMB5 synonymous mutation in exon 1, chr14: 23034851 G > A (protein, UniProt P28074 60-263, looked up)
Proteasome subunit beta type-5: B1 Proteasome subunit beta type-5 with N19R
modifications: synonymous mutation L11L
notes: PSMB5 synonymous mutation in exon 1, chr14: 23034851 G > A
B5: G82D: PSMB5 variant, chr14: 23033628 C > T (protein, UniProt P28074 60-263, looked up, variant G82D)
Proteasome subunit beta type-5: B1 Proteasome subunit beta type-5 with N19R, G23D

Experiments:
[1] = system: mCherry; assay: mCherry fluorescence by flow cytometry as proxy for off-target mutation; type: cell-based; conditions: cells expressing dCas9, MS2-AID*Δ, GFP, sgRNA individually
Protocol: (§1) Lentiviral production as well as infection and culturing of K562 cells (ATCC) were performed as described (45). Parental K562 cell lines were generated by infecting dCas9-Blast (pGH125) followed by blasticidin selection (10 μg/mL, Gibco) for 7 days. Cells were subsequently infected with both GFP (pGH045) and mCherry (pGH044) expression vectors or with a wtGFP (pGH220) expression vector and sorted via FACS for fluorescence. These cell lines were used as the parental samples in the sequencing assays. For experiments using an integrated construct, cells were infected with MS2-AID (pGH153, 156, 183, and 335) expressing vectors followed by selection with hygromycin B (200 μg/mL, Life Technologies) for 7 days. All cell lines were maintained in a humidified incubator (37° C., 5% CO2), and checked regularly for mycoplasma contamination.
(§2) Nucleofection of K562 cells was performed as described (46). 1 million K562 cells were harvested for each electroporation. Cells were centrifuged at 300×g for 5 minutes and resuspended in 100 μL of nucleofection solution and mixed with plasmid DNA (5 μg MS2-AID expressing plasmid and 5 μg sgRNA expression vector) and loaded into a 2 mm cuvette (VWR). Electroporations were performed using the T-016 program on the Lonza Nucleofector 2b. After electroporation, cells were rescued in warm, supplemented RPMI media.

[2] = system: GFP and mCherry; assay: Simultaneous mutation of two loci, flow cytometry; type: cell-based; conditions: cells expressing dCas9, MS2-AID*Δ
Protocol: Scatter plots were generated in FlowJo.
Independent mutagenesis at multiple locations is typically not possible with traditional directed evolution experiments. However, the CRISPR/Cas9 system can target multiple loci using different sgRNAs (26, 27). Accordingly, experiments were conducted using two guides, one targeting GFP (sgGFP.10) and the other targeting mCherry (sgmCherry.1), both individually and in combination.

[3] = system: GFP; conditions: cells expressing dCas9, MS2-AID*Δ, mCherry, sgRNA individually
Protocol: as §1, §2

[4] = system: PSMB5; assay: Installation and validation of bortezomib resistant PSMB5 mutations, cell viability; type: cell-based; conditions: mutation knocked into K562 cells at native PSMB5 locus; 20 nM bortezomib, 14 days; compared to controls
Protocol: sgRNAs were designed to target near the location of the installed SNP and 101-nt donor oligos were designed to be centered around the installed mutation. Oligonucleotides with proper overhangs were ordered from IDT and annealed before ligation into BbsI digested pGH020, a hu6 driven sgRNA expression vector. All plasmids were verified by Sanger sequencing.
K562 cells expressing Cas9 were electroporated with 5 μg of sgRNA expressing vector and 100 picomoles of donor oligo. Cells were grown for 6 days before 300,000 cells were placed under selection with 20 nM bortezomib for 14 days. The viability of the cells was measured by flow cytometry using a live cell gate (FSC/SSC). After selection, 750,000 cells were harvested and genomic DNA was extracted using the QiaAmp DNA Mini Kit (Qiagen). The PSMB5 exonic locus containing the mutation was PCR amplified, gel purified, and ligated into the pCR-Blunt vector using the Zero-Blunt cloning kit (Life Technologies). 8-15 colonies were Sanger sequenced for each sample.
Eight of these mutations were functionally validated by knocking each one into the genome separately at the native PSMB5 locus using active Cas9 cutting followed by HDR mediated by a DNA donor oligo (26, 27). To control for the effect of Cas9 cutting and HDR, a synonymous mutation not identified in our screen was knocked into each exon. Cas9 expressing K562 cells were electroporated with donor oligo and sgRNA and incubated for six days followed by subsequent selection with bortezomib. After 14 days, the viability of the cells was measured (FIG. 12). […] For the most resistant mutations, the PSMB5 locus was sequenced following bortezomib selection and the presence of the expected mutation was verified in the majority of non-frameshifted sequences (FIG. 13). Together, these experiments indicate that the technology provided herein selectively mutagenized an endogenously expressed protein target, identifying known and novel mutants that confer drug resistance.

Row | Molecule | protection against bortezomib-induced cell death (viability) [4] | also measured
1 | sgmCherry.1: sgRNA targeting mCherry, sequence GCGGTCTGGGTGCCCTCGTA (SEQ ID NO: 81) (listed as DNA, chemistry not fully specified) | – | mCherry low population [1]: ~15%; cells with mutations at both loci (neither GFP nor mCherry) [2]: 0.30%
2 | sgGFP.10: sgRNA targeting GFP, sequence CGTCGCCGTCCAGCTCGACC (SEQ ID NO: 38) (chemistry not given here) | – | GFP low population [3]: ~15%; cells with mutations at both loci (neither GFP nor mCherry) [2]: 0.26%
3 | B1 | strongly protective | –
4 | B2 | strongly protective | –
5 | B3 | strongly protective | –
6 | B4 | more modest protection | –
7 | B5 | more modest protection | –
